According to paper PMC9050680, “Interaction of human CRX and NRL in live HEK293T cells measured using fluorescence resonance energy transfer (FRET)” (Scientific Reports, 2022):

B1: human NRL with mCherry or EGFP fused to the N-terminus (near the activation domain) (natural protein)
chain: not shown
notes: NRL, human, neural retina-specific leucine zipper protein; coding region cloned in derivatives of pEGFP-N1 with an NLS and a linker to EGFP or mCherry; mNRL (mCherry, acceptor) and eNRL (EGFP, donor) differ only in the fluorophore and are written as one molecule; The discussion speaks of (Gly)5 linkers between the fluorophores and NRL; also called mNRL; eNRL; source: HEK293T, transiently …
B2: human CRX with mCherry or EGFP fused to the N-terminus (near the homeodomain) (natural protein)
chain: not shown
notes: CRX, human, cone-rod homeobox protein; coding region cloned in derivatives of pEGFP-N1 with an NLS and a linker to EGFP or mCherry; mCRX (mCherry, acceptor) and eCRX (EGFP, donor) differ only in the fluorophore and are written as one molecule; mCRX + eCRX is a row of m1 with itself; also called mCRX; eCRX; source: HEK293T, transiently transfected, in live cells (fixed cells for acceptor …)

Molecular target: the molecule itself
Test: FRET or BRET; FC-FRET: flow cytometry, sensitized emission (three-cube N_FRET, apparent FRET efficiency) in live transiently cotransfected HEK293T cells suspended in PBS; donor EGFP, acceptor mCherry; population means and dependence on expression level compared with unlinked mCh + eG

Row | Protein | N_FRET (mean apparent FRET efficiency)
1 | B1 | 2.5%
2 | B2 | 3.3%
